# According to US20240392023A1 (ABCLON, published 2024):
# T1: CD30 expressed on cells (CD30-293T, SUDHL1, HDLM-2) (UniProt P28908 19-595)
# T1 sequence (looked up): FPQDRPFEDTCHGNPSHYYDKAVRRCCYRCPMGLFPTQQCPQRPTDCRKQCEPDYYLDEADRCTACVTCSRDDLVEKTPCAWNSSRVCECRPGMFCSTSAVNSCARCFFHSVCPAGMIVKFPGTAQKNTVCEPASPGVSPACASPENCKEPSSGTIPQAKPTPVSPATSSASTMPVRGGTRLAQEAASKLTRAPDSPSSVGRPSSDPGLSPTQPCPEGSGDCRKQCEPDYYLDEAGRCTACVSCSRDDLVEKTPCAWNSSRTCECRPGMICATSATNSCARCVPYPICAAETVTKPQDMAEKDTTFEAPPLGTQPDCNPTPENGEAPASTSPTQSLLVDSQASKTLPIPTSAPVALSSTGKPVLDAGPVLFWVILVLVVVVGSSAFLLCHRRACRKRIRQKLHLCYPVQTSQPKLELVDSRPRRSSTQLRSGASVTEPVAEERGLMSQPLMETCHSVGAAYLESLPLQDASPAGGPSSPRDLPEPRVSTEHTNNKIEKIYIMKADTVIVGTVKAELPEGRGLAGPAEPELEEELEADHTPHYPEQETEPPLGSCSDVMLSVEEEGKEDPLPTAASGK
# B1: scFv CAR of anti CD30 antibody (T1-117), on CAR-T cells (other)
# chain: EVQLLESGGGLVQPGGSLRLSCAASGFTFSYYGMSWVRQAPGKGLEWVSYISGYSSYTYYADSVKGRFTISRDNSKNTLYLQMNSLRAEDTAVYYCARYNDSGSFDYWGQGTLVTVSSGGGGSGGGGSGGGGSQSVLTQPPSASGTPGQRVTISCSGSSSNIGSNYVYWYQQLPGTAPKLLIYRNNQRPSGVPDRFSGSKSGTSASLAISGLRSEDEADYYCAADAGNRYVFGGGTKLTVLGGQAGQTTTPAPRPPTPAPTIASQPLSLRPEACRPAAGGAVHTRGLDFACDIYIWAPLAGTCGVLLLSLVITLYCKRGRKKLLYIFKQPFMRPVQTTQEEDGCSCRFPEEEEGGCELRVKFSRSADAPAYQQGQNQLYNELNLGRREEYDVLDKRRGRDPEMGGKPRRKNPQEGLYNELQKDKMAEAYSEIGMKGERRRGKGHDGLYQGLSTATKDTYDALHMQALPPR
# B2: scFv CAR of anti CD30 antibody (T1-10), on CAR-T cells (other)
# chain: EVQLLESGGGLVQPGGSLRLSCAASGFTFSSYGMSWVRQAPGKGLEWVSYISGGSYYTYYADSVKGRFTISRDNSKNTLYLQMNSLRAEDTAVYYCARYGYGYYDGSFDYWGQGTLVTVSSGGGGSGGGGSGGGGSQSVLTQPPSASGTPGQRVTISCSGSSSNIGSNYVYWYQQLPGTAPKLLIYRNNQRPSGVPDRFSGSKSGTSASLAISGLRSEDEADYYCAADGPYNYVFGGGTKLTVLGGQAGQTTTPAPRPPTPAPTIASQPLSLRPEACRPAAGGAVHTRGLDFACDIYIWAPLAGTCGVLLLSLVITLYCKRGRKKLLYIFKQPFMRPVQTTQEEDGCSCRFPEEEEGGCELRVKFSRSADAPAYQQGQNQLYNELNLGRREEYDVLDKRRGRDPEMGGKPRRKNPQEGLYNELQKDKMAEAYSEIGMKGERRRGKGHDGLYQGLSTATKDTYDALHMQALPPR
# B3: scFv CAR of anti CD30 antibody (T1-2), on CAR-T cells (other)
# chain: EVQLLESGGGLVQPGGSLRLSCAASGFTFSGYGMSWVRQAPGKGLEWVSYISGYSYYTYYADSVKGRFTFSRDNSKNTLYLQMNSLRAEDTAVYYCARYDGNGFDYWGQGTLVTVSSGGGGSGGGGSGGGGSQSVLTQPPSASGTPGQRVTISCSGSSSNIGSNYVYWYQQLPGTAPKLLIYRNNQRPSGVPDRFSGSKSGTSASLAISGLRSEDEADYYCAADSSDDSYVFGGGTKLTVLGGQAGQTTTPAPRPPTPAPTIASQPLSLRPEACRPAAGGAVHTRGLDFACDIYIWAPLAGTCGVLLLSLVITLYCKRGRKKLLYIFKQPFMRPVQTTQEEDGCSCRFPEEEEGGCELRVKFSRSADAPAYQQGQNQLYNELNLGRREEYDVLDKRRGRDPEMGGKPRRKNPQEGLYNELQKDKMAEAYSEIGMKGERRRGKGHDGLYQGLSTATKDTYDALHMQALPPR
# B4: scFv CAR of anti CD30 antibody (T1-7), on CAR-T cells (other)
# chain: EVQLLESGGGLVQPGGSLRLSCAASGFTFSGYGMSWVRQAPGKGLEWVSYISSGSYYTYYADSVKGRFTISRDNSKNTLYLQMNSLRAEDTAVYYCARYRGDNDYYGYFDYWGQGTLVTVSSGGGGSGGGGSGGGGSQSVLTQPPSASGTPGQRVTISCSCSSSNIGNNAVSWYQQLPGTAPKLLIYRNNQRPSGVPDRFSGSKSGTSASLAISGLRSEDEADYYCAADYGSDYVFGGGTKLTVLGGQAGQTTTPAPRPPTPAPTIASQPLSLRPEACRPAAGGAVHTRGLDFACDIYIWAPLAGTCGVLLLSLVITLYCKRGRKKLLYIFKQPFMRPVQTTQEEDGCSCRFPEEEEGGCELRVKFSRSADAPAYQQGQNQLYNELNLGRREEYDVLDKRRGRDPEMGGKPRRKNPQEGLYNELQKDKMAEAYSEIGMKGERRRGKGHDGLYQGLSTATKDTYDALHMQALPPR
# B5: scFv CAR of anti CD30 antibody (T1-36), on CAR-T cells (other)
# chain: EVQLLESGGGLVQPGGSLRLSCAASGFTFSYYYMSWVRQAPGKGLEWVSYIGGGGSGTYYADSVKGRFTISRDNSKNTLYLQMNSLRAEDTAVYYCARGPYYGYFDYWGQGTLVTVSSGGGGSGGGGSGGGGSQSVLTQPPSASGTPGQRVTISCSGSSSNIGSNYVYWYQQLPGTAPKLLIYRNNQRPSGVPDRFSGSKSGTSASLAISGLRSEDEADYYCAAYPSYDSYVFGGGTKLTVLGGQAGQTTTPAPRPPTPAPTIASQPLSLRPEACRPAAGGAVHTRGLDFACDIYIWAPLAGTCGVLLLSLVITLYCKRGRKKLLYIFKQPFMRPVQTTQEEDGCSCRFPEEEEGGCELRVKFSRSADAPAYQQGQNQLYNELNLGRREEYDVLDKRRGRDPEMGGKPRRKNPQEGLYNELQKDKMAEAYSEIGMKGERRRGKGHDGLYQGLSTATKDTYDALHMQALPPR
# B6: scFv CAR of anti CD30 antibody (T1-23), on CAR-T cells (other)
# chain: EVQLLESGGGLVQPGGSLRLSCAASGFTFSSYSMSWVRQAPGKGLEWVSGIGYPYYTYYADSVKGRFTISRDNSKNTLYLQMNSLRAEDTAVYYCARYYYDYGFDYWGQGTLVTVSSGGGGSGGGGSGGGGSQSVLTQPPSASGTPGQRVTISCSGSSSNIGSNYVYWYQQLPGTAPKLLIYRNNQRPSGVPDRFSGSKSGTSASLAISGLRSEDEADYYCAAYRSYDYVFGGGTKLTVLGGQAGQTTTPAPRPPTPAPTIASQPLSLRPEACRPAAGGAVHTRGLDFACDIYIWAPLAGTCGVLLLSLVITLYCKRGRKKLLYIFKQPFMRPVQTTQEEDGCSCRFPEEEEGGCELRVKFSRSADAPAYQQGQNQLYNELNLGRREEYDVLDKRRGRDPEMGGKPRRKNPQEGLYNELQKDKMAEAYSEIGMKGERRRGKGHDGLYQGLSTATKDTYDALHMQALPPR
# Biological target: T1, CD30 expressed on cells (CD30-293T, …)
# Experiment: cell-based or functional assay
Binder,"Cytotoxicity (%) against CD30-expressing cell (SUDHL1), CAR-T/Target 0.11","Cytotoxicity (%) against CD30-expressing cell (SUDHL1), CAR-T/Target 0.33","Cytotoxicity (%) against CD30-expressing cell (SUDHL1), CAR-T/Target 1"
B1,-2%,11%,21%
B2,33%,60%,81%
B3,11%,35%,54%
B4,8%,18%,34%
B5,48%,89%,95%
B6,37%,68%,84%

# Biological target: T1, CD30 expressed on cells (CD30-293T, …)
# Experiment: cell-based or functional assay
# Remark: another data set of the same source
Binder,"Cytotoxicity (%) against CD30-expressing cell (CD30-293T), CAR-T/Target 0.11","Cytotoxicity (%) against CD30-expressing cell (CD30-293T), CAR-T/Target 0.33","Cytotoxicity (%) against CD30-expressing cell (CD30-293T), CAR-T/Target 1"
B1,-3%,-1%,-14%
B2,1%,7%,33%
B3,1%,7%,13%
B4,-5%,-2%,-2%
B5,21%,78%,98%
B6,7%,41%,79%
